Here are results for 1 molecule from publication PMC8377056 (2021).

Broadly, the koff is the first-order rate constant of dissociation.

This test addresses Fc(A680)-VH4127 conjugate (human, UniProt P01857 = IgG part, Alexa Fluor 680 (degree of labelling 1.7); H-PEG6-VH4127-NH2 joined enzymatically by microbial transglutaminase to the C-terminus of the Myc-tagged Fc | non-natural amino acid residues (not given); …). In words: SPR. On the technique in general: SPR reads the build-up and loss of mass on a sensor chip optically.

B1: His-tagged recombinant mouse LDLR (receptor)
chain: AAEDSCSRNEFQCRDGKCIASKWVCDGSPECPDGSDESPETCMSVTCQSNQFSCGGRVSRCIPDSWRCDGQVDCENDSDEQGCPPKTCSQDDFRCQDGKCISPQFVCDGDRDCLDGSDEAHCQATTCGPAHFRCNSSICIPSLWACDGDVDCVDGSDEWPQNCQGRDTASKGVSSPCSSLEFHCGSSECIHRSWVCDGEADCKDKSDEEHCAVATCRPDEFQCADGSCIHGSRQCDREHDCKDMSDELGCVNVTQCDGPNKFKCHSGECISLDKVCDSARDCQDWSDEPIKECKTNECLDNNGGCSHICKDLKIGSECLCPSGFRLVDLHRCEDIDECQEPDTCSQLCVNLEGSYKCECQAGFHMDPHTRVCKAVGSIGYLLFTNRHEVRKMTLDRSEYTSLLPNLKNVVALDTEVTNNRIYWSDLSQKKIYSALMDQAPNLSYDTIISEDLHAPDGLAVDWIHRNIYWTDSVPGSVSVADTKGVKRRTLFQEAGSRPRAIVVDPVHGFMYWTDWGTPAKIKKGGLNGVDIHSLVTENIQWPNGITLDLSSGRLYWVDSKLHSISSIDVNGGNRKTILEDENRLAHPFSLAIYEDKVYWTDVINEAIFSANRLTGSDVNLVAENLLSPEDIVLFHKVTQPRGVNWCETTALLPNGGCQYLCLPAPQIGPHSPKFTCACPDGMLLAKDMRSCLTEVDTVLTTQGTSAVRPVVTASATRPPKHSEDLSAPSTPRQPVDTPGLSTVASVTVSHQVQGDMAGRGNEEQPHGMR
As for B1, the off-rate (koff) was 0.000236 s⁻¹.
